Columns and labels:
[1] = target: T1, Human Tau 2N4R, wild type, recombinant full length (human, UniProt P10636 2-758); test: SPR BIAcore, biotinylated mAb on streptavidin (CAP) chip, single cycle, 1:1 Langmuir
T1 construct: Full length 2N4R isoform; monomer in SPR and ELISA; heparin-induced aggregates or seeds in the functional assays; also called Tau441; Tau-441
Description: 400 μg of each antibody was diluted to 2 mg/mL and buffer-exchanged into 0.1 M sodium bicarbonate, pH 8.3 using 0.5 mL Zeba™ 40 kDa MWCO desalting columns (Thermo). NHS-PEG4-biotin, prepared immediately before use by dissolving in water to a 20 mM final stock concentration, was added to antibodies at a 5:1 molar ratio (biotin:MAb) and conjugated for 1 hr at room temperature. Excess biotin was removed by two sequential buffer exchanges into 1×DPBS using 0.5 mL Zeba™ 40 kDa MWCO desalting columns. For the BIAcore™ assay, antibodies were diluted to 2 μg/mL in PBS-P+/0.2% BSA (the same preparation used for the running buffer), centrifuged at 14,000 g for 5 min at room temperature, and the supernatant transferred to a new tube. Injection time was subsequently determined for each antibody to achieve a capture level of ˜225 RU.
Biotinylated humanized and mouse mAbs were captured on a streptavidin-coated chip and kₐ, kd, and KD were determined for binding to Tau (Table 11). […] The affinity of 7G6-HCzu8-LCzu6, 7G6-HCzu24-LCzu15, 7G6-HCzu24-LCzu18, 7G6-HCzu25-LCzu15, and 7G6-HCzu25-LCzu18 were all similar.

[2] = target: T2, HVPGG site of Tau (15-mer array peptides containing HVPGG) (human); test: peptide microarray; HVPGG site of the second repeat region against HKPGG (repeat region 3)
T2 peptide: HVPGG
Description: The diluted antibody was incubated on the chip for 16 hours at 4° C. with shaking at 140 rpm. Primary antibody was removed and the chip was washed in PBS (pH 7.4)/0.05% Tween 20. Wash buffer was removed and goat anti-mouse IgG (H+L) DyLight™680 (1:5000) and an anti-HA tag DyLight™ 800 (1:2000) in the same buffer as the primary antibody was then incubated for 45 minutes at room temperature on the chip. Detection antibody was removed and the chip was washed once again as previously. Fluorescence images were acquired on the LI-COR Odyssey™ Imaging System and the microarray data was finally analyzed using the PepSlide™ Analyser software.

T1 sequence (P10636 other isoform, or with tags, fused parts or gaps limits assumed): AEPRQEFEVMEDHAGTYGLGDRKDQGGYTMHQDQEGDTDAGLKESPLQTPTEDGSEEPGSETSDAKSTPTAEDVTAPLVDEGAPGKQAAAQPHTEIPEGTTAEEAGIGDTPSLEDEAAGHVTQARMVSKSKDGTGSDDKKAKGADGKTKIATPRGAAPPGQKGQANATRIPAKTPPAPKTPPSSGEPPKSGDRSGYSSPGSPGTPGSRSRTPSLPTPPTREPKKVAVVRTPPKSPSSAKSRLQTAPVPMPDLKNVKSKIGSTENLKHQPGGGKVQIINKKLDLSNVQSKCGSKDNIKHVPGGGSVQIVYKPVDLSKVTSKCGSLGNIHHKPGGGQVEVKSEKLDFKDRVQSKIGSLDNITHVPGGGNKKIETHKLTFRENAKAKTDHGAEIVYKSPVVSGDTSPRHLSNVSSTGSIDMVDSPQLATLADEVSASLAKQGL

B1: murine 7G6 antibody (antibody, mouse IgG2b, V domains shown)
VH: QVQLLQPGAELVKPGASVIMSCKASGYTFTTYWITWVKQRPGQGLEWIGDIYPGSSICNYNEKFKSKATLTVDTSSSTAYMQLNSLTSEDSAVYYCAREDGYDAWFAYWGQGTLVTVSA
VL: DVLMTQTPLSLPVSLGDQASISCRSSQSILHSNGNTYLEWYLQKPGQSPKLLICKVSNRFSGVPDRFSGSGSGTDFTLKISRVEAEDLGVYYCFQGSHVPFTFGSGTKLEIK
notes: Mouse IgG2b, kappa, purified from hybridoma; also called ms7G6; mouse 7G6
- Kd [1]: 0.0636 nM
- koff [1]: 0.000195 s⁻¹
- kon [1]: 3.11e+06 M⁻¹ s⁻¹
- fold preference in binding (average signal intensities) [2]: 38 fold

Source: patent publication US20190112365A1 (EISAI R AND D MANAGEMENT, published 2019)
